± gives the uncertainty stated by the source.
B1: Spectrin alpha chain, erythrocytic 1, residues 979 to 1036; numbered along this chain, P02549 (parent)
chain: EQRVMALYDFQARSPREVTMKKGDVLTLLSSINKDWWKVEAADHQGIVPAVYVRRLAH

Variants of: B1
Test: abundance fitness (aPCA) (normalised: wild type 0, dead -1); higher = more abundant; growth selection in yeast, the domain comes from the species named
Conditions: Homo sapiens

Row | Variant | abundance fitness
1 | EQRVMALYDFQARSPREVTMKKGDVLTLLSSINKDWWKVEAADHQGIWPAVYVRRLAH [V48W] | -0.809 ± 0.29
2 | EQRVMALYDFQARSPREVTMKKGDVLQLLSSINKDWWKVEAADHQGIVPAVYVRRLAH [T27Q] | -0.228 ± 0.28
3 | EQRVMALYDFQARSPREVTMKKGDVLSLLSSINKDWWKVEAADHQGIVPAVYVRRLAH [T27S] | -0.808 ± 0.12
4 | EQRVMALYDFQARSPREVTMKKGDKLTLLSSINKDWWKVEAADHQGIVPAVYVRRLAH [V25K] | -0.226 ± 0.46
5 | EQRVMALYDFQARSPREVTMKKGDCLTLLSSINKDWWKVEAADHQGIVPAVYVRRLAH [V25C] | -0.146 ± 0.39
6 | EQRVMALYDFQARSPREVTMKKGDVLTLLSSINKDWWKVVAADHQGIVPAVYVRRLAH [E40V] | -0.573 ± 0.21
7 | EQRVMALYDFQARSPREVTMKKGDVLTLLSYINKDWWKVEAADHQGIVPAVYVRRLAH [S31Y] | -0.252 ± 0.17
8 | EQRVMALYDFQARSPREVTMKKGDVLTLLSMINKDWWKVEAADHQGIVPAVYVRRLAH [S31M] | -0.04 ± 0.22
9 | EQRVMALYDFQARSPREVTYKKGDVLTLLSSINKDWWKVEAADHQGIVPAVYVRRLAH [M20Y] | -0.867 ± 0.32
10 | EQRVMALYDFQARSPREVTMKKGDVLTLLSSINMDWWKVEAADHQGIVPAVYVRRLAH [K34M] | -0.514 ± 0.11
11 | EQRVMALYDFQARSPREVTMKKGDVLTLLSSIWKDWWKVEAADHQGIVPAVYVRRLAH [N33W] | -0.822 ± 0.21
12 | EQRVMALYDFQARSPREVTMKKGDVLTLLSSINKDWWKVEAADHQSIVPAVYVRRLAH [G46S] | -1.04 ± 0.49
13 | EQRVMAGYDFQARSPREVTMKKGDVLTLLSSINKDWWKVEAADHQGIVPAVYVRRLAH [L7G] | -0.559 ± 0.12
14 | EQRVMADYDFQARSPREVTMKKGDVLTLLSSINKDWWKVEAADHQGIVPAVYVRRLAH [L7D] | -0.135 ± 0.48
15 | EQRVMALYDFQARSPREVTMKKGDVLTKLSSINKDWWKVEAADHQGIVPAVYVRRLAH [L28K] | -0.676 ± 0.44
16 | EQRVMALYDFQARSPREVTMKKGDVLTLLSSINKDWWKVEAADHQGIVPAVYVSRLAH [R54S] | -0.588 ± 0.29
17 | EQRVMALYDFQARSPREVTMKKGDVLTLLSSINKDWWKVEAADHQGIVPAVYVDRLAH [R54D] | 0.095 ± 0.32
18 | EQRVMALYDFQARSPREVTMKKGDVLTLLDSINKDWWKVEAADHQGIVPAVYVRRLAH [S30D] | -0.013 ± 0.26
19 | EHRVMALYDFQARSPREVTMKKGDVLTLLSSINKDWWKVEAADHQGIVPAVYVRRLAH [Q2H] | -0.061 ± 0.13
20 | EFRVMALYDFQARSPREVTMKKGDVLTLLSSINKDWWKVEAADHQGIVPAVYVRRLAH [Q2F] | 0.195 ± 0.48
21 | EDRVMALYDFQARSPREVTMKKGDVLTLLSSINKDWWKVEAADHQGIVPAVYVRRLAH [Q2D] | 0.855 ± 0.26
22 | EQRVMSLYDFQARSPREVTMKKGDVLTLLSSINKDWWKVEAADHQGIVPAVYVRRLAH [A6S] | -0.496 ± 0.26
23 | EQRVMPLYDFQARSPREVTMKKGDVLTLLSSINKDWWKVEAADHQGIVPAVYVRRLAH [A6P] | -0.882 ± 0.19

Row | Variant | abundance fitness
24 | EQRVMELYDFQARSPREVTMKKGDVLTLLSSINKDWWKVEAADHQGIVPAVYVRRLAH [A6E] | -0.47 ± 0.11
25 | EQRCMALYDFQARSPREVTMKKGDVLTLLSSINKDWWKVEAADHQGIVPAVYVRRLAH [V4C] | -0.52 ± 0.33
26 | EQRGMALYDFQARSPREVTMKKGDVLTLLSSINKDWWKVEAADHQGIVPAVYVRRLAH [V4G] | -1.05 ± 0.28
27 | EQRVMALYDFQARSPREGTMKKGDVLTLLSSINKDWWKVEAADHQGIVPAVYVRRLAH [V18G] | -0.587 ± 0.15
28 | EQRVMALYDFQARSPREVTMKKGDVLTLLSSINKDWWKVEAAHHQGIVPAVYVRRLAH [D43H] | 0.129 ± 0.26
29 | EQRVMALYDFQARSPREVTMKKGDVLTLLSSINKDWWKVEAADHQGIVPAVYVRRLSH [A57S] | 0.236 ± 0.16
30 | EQRVMALYDFQARSPREVTMKKGDVLTLLSSINKDWWKVEAADHQGIVPAVEVRRLAH [Y52E] | -0.165 ± 0.23
31 | EQRVMALYDFQMRSPREVTMKKGDVLTLLSSINKDWWKVEAADHQGIVPAVYVRRLAH [A12M] | -0.891 ± 0.41
32 | EQRVMALYDFQARSPREVTMKKGDVLTLSSSINKDWWKVEAADHQGIVPAVYVRRLAH [L29S] | -0.134 ± 0.2
33 | EQRVMALYDFQARSPREVTMKKGDVLTLTSSINKDWWKVEAADHQGIVPAVYVRRLAH [L29T] | -0.27 ± 0.29
34 | EQRVMALYDFQARSPREVTMKKGLVLTLLSSINKDWWKVEAADHQGIVPAVYVRRLAH [D24L] | -0.986 ± 0.26
35 | EQRVMALYDFQARSPAEVTMKKGDVLTLLSSINKDWWKVEAADHQGIVPAVYVRRLAH [R16A] | 0.254 ± 0.37
36 | EQCVMALYDFQARSPREVTMKKGDVLTLLSSINKDWWKVEAADHQGIVPAVYVRRLAH [R3C] | -0.645 ± 0.34
37 | EQAVMALYDFQARSPREVTMKKGDVLTLLSSINKDWWKVEAADHQGIVPAVYVRRLAH [R3A] | -0.574 ± 0.2
38 | EQRVMALYDFYARSPREVTMKKGDVLTLLSSINKDWWKVEAADHQGIVPAVYVRRLAH [Q11Y] | -0.185 ± 0.095
39 | EQRVMALYDFSARSPREVTMKKGDVLTLLSSINKDWWKVEAADHQGIVPAVYVRRLAH [Q11S] | -0.372 ± 0.1
40 | EQRVMALYDFQARSPREVTMKKGDVLTLLSSINKVWWKVEAADHQGIVPAVYVRRLAH [D35V] | -0.037 ± 0.14
41 | EQRVMALYDFQARSPREVTMKKGDVLTLLSSINKDWWKVEAADHQGIVPCVYVRRLAH [A50C] | -0.512 ± 0.3
42 | EQRVMALYDFQARSPRCVTMKKGDVLTLLSSINKDWWKVEAADHQGIVPAVYVRRLAH [E17C] | -0.911 ± 0.41
43 | EQRVMALYDFQARSPRYVTMKKGDVLTLLSSINKDWWKVEAADHQGIVPAVYVRRLAH [E17Y] | -0.012 ± 0.27
44 | EQRVMALYDFQARSTREVTMKKGDVLTLLSSINKDWWKVEAADHQGIVPAVYVRRLAH [P15T] | -0.293 ± 0.23
45 | EQRVMALYDFQAVSPREVTMKKGDVLTLLSSINKDWWKVEAADHQGIVPAVYVRRLAH [R13V] | -0.867 ± 0.13
46 | EQRVMALYDFQARSPREVTMKKGDVLTLLSSINKDWWKVEAADHIGIVPAVYVRRLAH [Q45I] | 0.027 ± 0.36
